{"source": "paper PMC11655906", "about": "“Required minimal protein domain of flower for synaptobrevin2 endocytosis in cytotoxic T cells” (Cellular and Molecular Life Sciences: CMLS, 2024)", "proteins": {"B1": {"name": "Drosophila Flower isoform Ubi with C-terminal mTFP (dUbi-mTFP) (natural protein, UniProt Q95T12-1 1-194, looked up)", "chain": "MSFAEKITGLLARPNQQDPIGPEQPWYLKYGSRLLGIVAAFFAILFGLWNVFSIITLSVSCLVAGILQMVAGFVVMLLEAPCCFVCFGQVNEIAEKVESKPLYFRAGLYIAMAIPPIILCFGLASLFGSGLIFGTGVVYGMMALGKKASAEDMRAAAQQTFGGNTPAQTNDRAGIVNNAQPFSFTGAVGTDSNV", "notes": "Drosophila Flower (Fwe), ubiquitous splice isoform dUbi; the three Drosophila isoforms are identical in aa 1-146 and differ in the C-terminus; also called dFwe-Ubi-mTFP; Drosophila Ubi isoform; source: Fwe KO mouse CTLs, transfected with pMAX plasmid, in lysate"}, "B2": {"name": "mouse Flower isoform 1 with C-terminal mTFP (mFwe1-mTFP) (natural protein, UniProt Q8BG21-3 1-106, looked up)", "chain": "MSGSGAAGAAAGPAPPAQEEGMTWWYRWLCRLAGVLGAVSCAISGLFNCVTIHPLNIAAGVWMIMNAFILLLCEAPFCCQFVEFANTVAEKVDRLRSWQKAVFYCG", "notes": "Whole isoform cDNA synthesised (BioCAT) and subcloned into pMAX-mTFP; also called Mouse Fwe1; source: Fwe KO mouse CTLs, transfected with pMAX plasmid, in lysate"}, "B3": {"name": "mouse Flower isoform 2, full-length form, with C-terminal mTFP (mFwe2-mTFP) (natural protein, UniProt Q8BG21-1 1-171, looked up)", "chain": "MSGSGAAGAAAGPAPPAQEEGMTWWYRWLCRLAGVLGAVSCAISGLFNCVTIHPLNIAAGVWMIMNAFILLLCEAPFCCQFVEFANTVAEKVDRLRSWQKAVFYCGMAIVPIVMSLTLTTLLGNAIAFATGVLYGLSALGKKGDAISYARIQQQRQQADEEKLAETFEGEL", "notes": "mouse Flower (Fwe); also called Mouse Flower 2; source: Fwe KO mouse CTLs, transfected with pMAX plasmid, in lysate"}, "B4": {"name": "mouse Flower isoform 3 with C-terminal mTFP (mFwe3-mTFP) (natural protein, UniProt Q8BG21-2 1-128, looked up)", "chain": "MSGSGAAGAAAGPAPPAQEEGMTWWYRWLCRLAGVLGAVSCAISGLFNCVTIHPLNIAAGVWMIMNAFILLLCEAPFCCQFVEFANTVAEKVDRLRSWQKAVFYCGHGEALRGAWPDVRLPNRNTISL", "notes": "source: Fwe KO mouse CTLs, transfected with pMAX plasmid, in lysate"}, "B5": {"name": "human Flower isoform 4 with C-terminal mTFP (hFwe4-mTFP) (natural protein, UniProt Q9UGQ2-1 1-172, looked up)", "chain": "MSSSGGAPGASASSAPPAQEEGMTWWYRWLCRLSGVLGAVSCAISGLFNCITIHPLNIAAGVWMIMNAFILLLCEAPFCCQFIEFANTVAEKVDRLRSWQKAVFYCGMAVVPIVISLTLTTLLGNAIAFATGVLYGLSALGKKGDAISYARIQQQRQQADEEKLAETLEGEL", "notes": "human Flower (CACFD1) isoform hFwe4, contains exon 3 and both the YRWL and YARI motifs; 93% identical to mFwe2; also called human isoform Fwe4; source: Fwe KO mouse CTLs, transfected with pMAX plasmid, in lysate"}}, "note": "Values joined by “and” are separate entries in the source; they are usually repeats but may differ in a detail not shown here. Equal values may be shown once."}
{"biological_target": "the molecule itself", "assay": "native gel or EMSA; native PAGE (4-16% Bis-Tris, G-250 additive) of lysates of transfected Fwe KO mouse CTLs (modified RIPA: 50 mM Tris pH 7.5, 50 mM NaCl, 1% Triton-X-100, 1 mM EDTA), western blot with anti-DsRed recognising mTFP; oligomeric state read from band size"}
{"protein": "B1", "stoichiometry N": "2 and 4"}
{"protein": "B2", "stoichiometry N": "4 and 6 and 2"}
{"protein": "B3", "stoichiometry N": "4 and 2"}
{"protein": "B4", "stoichiometry N": "2 and 4 and 6"}
{"protein": "B5", "stoichiometry N": "2 and 4"}
